# Literature values in PMC4041007.
# How the values were obtained:
# LLT1 (Homo sapiens) = LLT1 (Homo sapiens) (UniProt Q9UHP7)
# KACL (Homo sapiens) = KACL (Homo sapiens) (UniProt Q6UVW9)
# Chain of UniProt Q6UVW9 (Q6UVW9 whole entry): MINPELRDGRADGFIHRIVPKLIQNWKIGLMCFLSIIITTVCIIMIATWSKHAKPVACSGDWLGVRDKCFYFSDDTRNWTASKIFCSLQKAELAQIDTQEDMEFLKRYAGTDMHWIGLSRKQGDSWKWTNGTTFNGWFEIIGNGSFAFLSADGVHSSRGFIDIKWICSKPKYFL
# Chain of UniProt Q9UHP7 (Q9UHP7 whole entry): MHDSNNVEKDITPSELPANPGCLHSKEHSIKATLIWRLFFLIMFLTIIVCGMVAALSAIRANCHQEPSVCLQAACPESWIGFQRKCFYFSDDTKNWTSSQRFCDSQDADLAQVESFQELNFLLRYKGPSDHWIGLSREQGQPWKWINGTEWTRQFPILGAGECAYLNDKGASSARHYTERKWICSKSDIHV
Substance,Kd (LLT1 (Homo sapiens)) [µM],Kd (KACL (Homo sapiens)) [µM]
NKR-P1A (from UniProt Q12918),50,–
NKp65 (from UniProt D3W0D1),–,0.002
